Data on five molecules can be found in article PMC9432830 (Science Advances, 2022).

Read-outs that look alike come from different tables or passages of the source.

For orientation: stoichiometry N means the number of molecules, sites or subunits per partner or assembly.

Series [1] concerns the target ctMic60sol V455D/F461D (Chaetomium thermophilum). Briefly: ITC. In general terms: In ITC the heat of successive injections is recorded.
Series [2] addresses Chaetomium thermophilum Mic60 excluding the TM region (residues 208 to 691) (Chaetomium thermophilum). Description: native gel or EMSA. (In general: In EMSA bound probe runs differently from free probe, usually more slowly.)
Series [3] has the same target. Description: native gel or EMSA. This is another data set of the same source.
The target of series [4] is ctMic60sol L676D (Chaetomium thermophilum). Briefly: native gel or EMSA.
The target of series [5] is ctMic60sol R525C (Chaetomium thermophilum). Briefly: native gel or EMSA.
The series “crystal structure” deals with the molecule itself. Briefly: crystal structure.

On to “Chaetomium thermophilum Mic19 (natural protein)”, for which the fold reduction of affinity against ctMic60sol in series [1] was 30 fold.
For the molecule “Chaetomium thermophilum Mic60 excluding the TM region (residues 208 to 691) (domain or fragment)”, the stoichiometry N in series [2] is 4; in series [3], 2.
Molecule ctMic60sol L676D (domain or fragment) registered a stoichiometry N in series [4] of 2.
Consider ctMic60sol R525C (domain or fragment), for which the stoichiometry N in series [5] was found to be 4.

B1: Mic60 coiled-coil domain from Lachancea thermotolerans (amino acids 207 to 382) (domain or fragment, UniProt C5E325 207-382, looked up)
chain: NEDIRTNVAESVAVQYGQASKDLHESFEIRAKSREVELTQQFLNEFNAFKAQLEKHSSEELASALKANEQALLAKQSNEVALLSMKQVEEFTKILSEKLDQERQGRLSKLEALNGSVQELAEAVDQVDTLVMKSEVLSQLSLLTTLLKNKLHAGDESSVKIDSELARLKTLCDILP
On to B1, for which the “stoichiometry N” value in the series “crystal structure” was 4.
